Reference: patent publication US20240294581

Tested on: T1, Leupeptin A (N-Acetyl-L-leucyl-L-leucyl-L-argininal)
T1 sequence: LLR

## Plu4509 (hypothetical protein / candidate protease from P. luminescens TTO1), purified as a His6x-tagged variant
  production of metabolites 10 and 11 (in vitro enzyme assay, end point analysis; 1 h, 35 C; LC-MS): addition of enzyme indeed significantly enhanced production of 10 and 11
  production of metabolites 10 and 11 in E. coli expressing plu4509, fed leupeptin A, versus vector control: E. coli control cultures were capable of generating both metabolites 10 and 11 with plu4509 providing an enhancement in production over controls
